This is an account of results in patent US20130174288A1 (PIERRE FABRE MEDICAMENT, published 2013).

Holding throughout (test): cell-based or functional assay
The target in test [1] is CXCR4 homodimer BRET pair [CXCR4/Rluc+CXCR4/YFP] on HEK293 cells (Renilla reniformis, UniProt P61073 1-352; P61073 1-352).
Test [2] concerns the target T1, human CXCR4 (hCXCR4), expressed on cells (human, UniProt P61073 1-352).
The target in test [3] is T1, human CXCR4 (hCXCR4), expressed on cells. The source holds these as a separate data set.
Test [4] concerns the target CCR5 on GHOST cells expressing CD4 and CCR5 (UniProt P51681 1-352, limits assumed).
The target of test [5] is T1, human CXCR4 (hCXCR4), expressed on cells. The source holds these as a separate data set.

Some results are limits rather than exact numbers.

CXCR4 homodimer BRET pair [CXCR4/Rluc+CXCR4/YFP] on HEK293 cells, sequence (P61073 whole entry, chain 1 of 2): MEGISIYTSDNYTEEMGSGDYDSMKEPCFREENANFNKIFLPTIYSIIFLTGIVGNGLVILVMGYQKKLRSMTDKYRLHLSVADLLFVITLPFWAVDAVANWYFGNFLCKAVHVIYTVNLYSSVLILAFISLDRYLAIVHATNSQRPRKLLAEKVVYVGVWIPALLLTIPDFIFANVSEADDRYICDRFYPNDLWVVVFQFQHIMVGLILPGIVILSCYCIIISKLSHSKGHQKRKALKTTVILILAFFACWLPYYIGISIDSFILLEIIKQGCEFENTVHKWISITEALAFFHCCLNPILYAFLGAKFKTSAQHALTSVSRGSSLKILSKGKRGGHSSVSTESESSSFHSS
CXCR4 homodimer BRET pair [CXCR4/Rluc+CXCR4/YFP] on HEK293 cells, sequence (P61073 whole entry, chain 2 of 2): as the sequence (P61073 whole entry, chain 1 of 2) above
T1 sequence (P61073 whole entry): as the sequence (P61073 whole entry, chain 1 of 2) above
CCR5 on GHOST cells expressing CD4 and CCR5, sequence (P51681 whole entry): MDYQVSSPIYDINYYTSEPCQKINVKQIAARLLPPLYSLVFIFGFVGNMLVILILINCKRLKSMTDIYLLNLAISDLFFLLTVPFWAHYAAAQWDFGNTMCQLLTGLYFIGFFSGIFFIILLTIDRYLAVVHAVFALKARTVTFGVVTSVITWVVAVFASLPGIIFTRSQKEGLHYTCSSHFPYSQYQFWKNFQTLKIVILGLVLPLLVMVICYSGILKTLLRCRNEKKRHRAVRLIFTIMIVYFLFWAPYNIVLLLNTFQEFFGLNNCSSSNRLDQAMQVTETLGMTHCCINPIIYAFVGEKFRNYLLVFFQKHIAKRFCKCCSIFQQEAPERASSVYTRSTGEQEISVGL

B1: anti-CXCR4 chimeric Mab c515H7 (antibody, V domains shown)
VH: EVNLVESGGGLVQPGGSLRLSCATSGFTFTDNYMSWVRQPPGKALEWLGFIRNKANGYTTDYSASVRGRFTISRDNSQSILYLQMNALRAEDSATYYCARDVGSNYFDYWGQGTTLTVSS
VL: DIVMSQSPSSLAVSAGEKVTMSCKSSQSLFNSRTRKNYLAWYQQKPGQSPKLLIYWASARDSGVPARFTGSGSETYFTLTISRVQAEDLAVYYCMQSFNLRTFGGGTKLEIK
Regarding B1, the “% inhibition of SDF-1-induced BRET increase” value in test [1] was found to be 96%. Moreover, in test [2], the “IC50 (µg/ml), % inhibition of infected cells, HIV-1 92UG024 replication in human PBMC” value is less than 1.5 µg/mL; the “IC50 (µg/ml), % inhibition of infected cells, HIV-1 KON replication in human PBMC” value was determined as 1.5 µg/mL; the “IC50 (µg/ml), % inhibition of infected cells, HIV-1 MN replication in human PBMC” value is less than 1.5 µg/mL; the “IC80 (µg/ml), % inhibition of infected cells, HIV-1 92UG024 replication in human PBMC” value was found to be 3 µg/mL. Besides, in test [2], the “IC80 (µg/ml), % inhibition of infected cells, HIV-1 KON replication in human PBMC” value was determined as 10 µg/mL; the “IC80 (µg/ml), % inhibition of infected cells, HIV-1 MN replication in human PBMC” value turned out to be 1 µg/mL; the “IC90 (µg/ml), % inhibition of infected cells, HIV-1 92UG024 replication in human PBMC” value was determined as 15 µg/mL; the “IC90 (µg/ml), % inhibition of infected cells, HIV-1 KON replication in human PBMC” value was determined as 20 µg/mL. The “IC90 (µg/ml), % inhibition of infected cells, HIV-1 MN replication in human PBMC” value in test [2] was 15 µg/mL. Moreover, in test [3], the “IC50 (µg/ml), % inhibition of infected cells, HIV-1 89.6 (dual X4/R5) replication in human PBMC” value was less than 1.5 µg/mL and the “IC80 (µg/ml), % inhibition of infected cells, HIV-1 89.6 (dual X4/R5) replication in human PBMC” value is 1.5 µg/mL.

B2: humanized Mab hz515H7 VH1 D76N VL2 (antibody, V domains shown)
VH: EVQLVESGGGLVQPGRSLRLSCTASGFTFTDNYMSWVRQAPGKGLEWVGFIRNKANGYTTEYAASVKGRFTISRDNSKSIAYLQMNSLKTEDTAVYYCARDVGSNYFDYWGQGTLVTVSS
VL: DIVMTQSPSSLAVSLGERATMSCKSSQSLFNSRTRKNYLAWYQQKPGQSPKLLIYWASARDSGVPARFTGSGSETYFTLTISRVQAEDLAVYYCMQSFNLRTFGQGTKVEIK
As for B2, the “% inhibition of SDF-1-induced BRET increase” value in test [1] was approximately 88%.

B3: anti-CXCR4 Mab 301aE5 (murine monoclonal antibody) (antibody, V domains shown)
VH: QVQLKESGPGLVAPSQSLSITCTVSGFSLTDYGVYWVRQPPGKGLEWLGMIWGDGTTDYNSALKSRLSISKDNSKSQVFLKMNTLQTDDTARYYCARGRQFGFDYWGQGTTLTVSS
VL: DIVMSQSPSSLAVSAGEKVTMRCKSSQSLFNSRTRKNYLAWYQQKPGQSPKLLIFWASIRESGVPDRFTGSGSGTDFTLTISSVQAEDLAVYYCKQSYNLRTFGGGTKLEIK
In the case of B3, in test [1], the “% inhibition of SDF-1-induced BRET increase” value amounted to 69%. Moreover, in test [2], the “IC50 (µg/ml), % inhibition of infected cells, HIV-1 92UG024 replication in human PBMC” value was 50 µg/mL; the “IC50 (µg/ml), % inhibition of infected cells, HIV-1 KON replication in human PBMC” value was 150 µg/mL; the “IC50 (µg/ml), % inhibition of infected cells, HIV-1 MN replication in human PBMC” value is 1 µg/mL; the “IC80 (µg/ml), % inhibition of infected cells, HIV-1 92UG024 replication in human PBMC” value amounted to 150 µg/mL. In test [2], the “IC80 (µg/ml), % inhibition of infected cells, HIV-1 KON replication in human PBMC” value was more than 150 µg/mL; the “IC80 (µg/ml), % inhibition of infected cells, HIV-1 MN replication in human PBMC” value amounted to 150 µg/mL; the “IC90 (µg/ml), % inhibition of infected cells, HIV-1 92UG024 replication in human PBMC” value was more than 150 µg/mL; the “IC90 (µg/ml), % inhibition of infected cells, HIV-1 KON replication in human PBMC” value was more than 150 µg/mL. For the same molecule, the “IC90 (µg/ml), % inhibition of infected cells, HIV-1 MN replication in human PBMC” value in test [2] was more than 150 µg/mL. In test [3], the “IC50 (µg/ml), % inhibition of infected cells, HIV-1 89.6 (dual X4/R5) replication in human PBMC” value stood at 20 µg/mL and the “IC80 (µg/ml), % inhibition of infected cells, HIV-1 89.6 (dual X4/R5) replication in human PBMC” value stood at 150 µg/mL.

B4: anti-CXCR4 Mab 515H7 (murine monoclonal antibody) (antibody, V domains shown)
VH: EVNLVESGGGLVQPGGSLRLSCATSGFTFTDNYMSWVRQPPGKALEWLGFIRNKANGYTTDYSASVRGRFTISRDNSQSILYLQMNALRAEDSATYYCARDVGSNYFDYWGQGTTLTVSS
VL: DIVMSQSPSSLAVSAGEKVTMSCKSSQSLFNSRTRKNYLAWYQQKPGQSPKLLIYWASARDSGVPARFTGSGSETYFTLTISRVQAEDLAVYYCMQSFNLRTFGGGTKLEIK
On to B4, for which the “% inhibition of SDF-1-induced BRET increase” value in test [1] turned out to be 69%. In test [2], the “IC50 (µg/ml), % inhibition of infected cells, HIV-1 92UG024 replication in human PBMC” value stood at 0.5 µg/mL; the “IC50 (µg/ml), % inhibition of infected cells, HIV-1 KON replication in human PBMC” value came out at 1 µg/mL; the “IC50 (µg/ml), % inhibition of infected cells, HIV-1 MN replication in human PBMC” value was less than 1.5 µg/mL; the “IC80 (µg/ml), % inhibition of infected cells, HIV-1 92UG024 replication in human PBMC” value came to 3 µg/mL. In addition, in test [2], the “IC80 (µg/ml), % inhibition of infected cells, HIV-1 KON replication in human PBMC” value amounted to 8 µg/mL; the “IC80 (µg/ml), % inhibition of infected cells, HIV-1 MN replication in human PBMC” value was 1.5 µg/mL; the “IC90 (µg/ml), % inhibition of infected cells, HIV-1 92UG024 replication in human PBMC” value was found to be 10 µg/mL; the “IC90 (µg/ml), % inhibition of infected cells, HIV-1 KON replication in human PBMC” value came to 15 µg/mL. Also, in test [2], the “IC90 (µg/ml), % inhibition of infected cells, HIV-1 MN replication in human PBMC” value amounted to 10 µg/mL. In test [3], the “IC50 (µg/ml), % inhibition of infected cells, HIV-1 89.6 (dual X4/R5) replication in human PBMC” value is less than 1.5 µg/mL and the “IC80 (µg/ml), % inhibition of infected cells, HIV-1 89.6 (dual X4/R5) replication in human PBMC” value was found to be 1.5 µg/mL. Moreover, the “IC50 (µg/ml), % inhibition of infected cells, GHOST CCR5 / R5 HIV-1 BaL virus” value in test [4] is more than 75 µg/mL. In test [5], the “IC50 (µg/ml), % inhibition of infected cells, GHOST CXCR4 / X4 HIV-1 LAI virus” value was 0.08 µg/mL.

B5: humanized Mab hz515H7 VH1 D76N VL2.1 (antibody, V domains shown)
VH: EVQLVESGGGLVQPGRSLRLSCTASGFTFTDNYMSWVRQAPGKGLEWVGFIRNKANGYTTEYAASVKGRFTISRDNSKSIAYLQMNSLKTEDTAVYYCARDVGSNYFDYWGQGTLVTVSS
VL: DIVMTQSPDSLAVSLGERATMSCKSSQSLFNSRTRKNYLAWYQQKPGQPPKLLIYWASARDSGVPDRFSGSGSETYFTLTISRVQAEDLAVYYCMQSFNLRTFGQGTKVEIK
Take B5: the “% inhibition of SDF-1-induced BRET increase” value in test [1] was approximately 65%.

B6: humanized Mab hz515H7 VH1 D76N VL2.2 (antibody, V domains shown)
VH: EVQLVESGGGLVQPGRSLRLSCTASGFTFTDNYMSWVRQAPGKGLEWVGFIRNKANGYTTEYAASVKGRFTISRDNSKSIAYLQMNSLKTEDTAVYYCARDVGSNYFDYWGQGTLVTVSS
VL: DIVMTQSPDSLAVSLGERATMSCKSSQSLFNSRTRKNYLAWYQQKPGQPPKLLIYWASARDSGVPDRFTGSGSETYFTLTISRVQAEDVAVYYCMQSFNLRTFGQGTKVEIK
As to B6, the “% inhibition of SDF-1-induced BRET increase” value in test [1] was approximately 33%.

B7: humanized Mab hz515H7 VH1 D76N VL2.3 (antibody, V domains shown)
VH: EVQLVESGGGLVQPGRSLRLSCTASGFTFTDNYMSWVRQAPGKGLEWVGFIRNKANGYTTEYAASVKGRFTISRDNSKSIAYLQMNSLKTEDTAVYYCARDVGSNYFDYWGQGTLVTVSS
VL: DIVMTQSPDSLAVSLGERATMSCKSSQSLFNSRTRKNYLAWYQQKPGQPPKLLIYWASARDSGVPDRFTGSGSETYFTLTISSLQAEDLAVYYCMQSFNLRTFGQGTKVEIK
As for B7, in test [1], the “% inhibition of SDF-1-induced BRET increase” value was approximately 21%.
